In the supplement of paper PMC11780869:

Tested on: Bacillus subtilis
Assay: cleaved RNA product abundance (RNA/gDNA barcode ratio) relative to median wild-type variant (ratio to wild type); higher = more accumulation of the downstream cleavage product
Details: cleavage site: cggR-gapA (positions -7 to +36 mutated)
Outline: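 Cleaved product abundance is expressed as the RNA:gDNA barcode ratio per construct, scaled to the median construct carrying the unmutated site. The constructs were barcoded, mutagenized RNase Y cleavage-site windows in truncated aprE or tetM reporter mRNAs integrated into the B. subtilis chromosome. Cultures grew in LB at 37°C from OD600 0.0003 to 0.3 before cleaved RNA was gel-selected and barcode-sequenced.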

[1] = experiment (reporter, strain, medium): exp 2b: truncated aprE reporter, strain BJT200
[2] = experiment (reporter, strain, medium): exp 4a: truncated aprE reporter, strain BJT201 with 2% xylose (RNase J1 expressed)

| Sequence | cleaved RNA product abundance [1] | cleaved RNA product abundance [2] | cleaved RNA product abundance (experiment (reporter, strain, medium): exp 6: tetM reporter, strain 168) |
| --- | --- | --- | --- |
| ACAGACGAAGGAGCCGCAAAGAAGTTATTAAGCGATAAATAATCCCTCAATATAAATATCTCTCACTTATTTAAA | 0.0673 | 0.0716 |  |
| ACAGACGAAGGAGCCGCAAAGAAGTTATTAAGCGATCAATAATCCCTCAATATAAATATCTCTCACTTATTTAAA | 0.0893 | 0.0886 |  |
| ACAGACGAAGGAGCCGCAAAGAAGTTATTAAGCGATGAACAATCCCTCAATATAAATATCTCTCACTTATTTAAA |  | 0.133 |  |
| ACAGACGAAGGAGCCGCAAAGAAGTTATTAAGCGATGAAGAATCCCTCAATATAAATATCTCTCACTTATTTAAA |  | 0.0967 |  |
| ACAGACGAAGGAGCCGCAAAGAAGTTATTAAGCGATGAATAAACCCTCAATATAAATATCTCTCACTTATTTAAA |  | 0.0954 |  |
| ACAGACGAAGGAGCCGCAAAGAAGTTATTAAGCGATGAATAAGCCCTCAATATAAATATCTCTCACTTATTTAAA |  | 0.108 |  |
| ACAGACGAAGGAGCCGCAAAGAAGTTATTAAGCGATGAATAATACCTCAATATAAATATCTCTCACTTATTTAAA | 0.0864 | 0.127 |  |
| ACAGACGAAGGAGCCGCAAAGAAGTTATTAAGCGATGAATAATCACTCAATATAAATATCTCTCACTTATTTAAA |  | 0.101 |  |
| ACAGACGAAGGAGCCGCAAAGAAGTTATTAAGCGATGAATAATCCATCAATATAAATATCTCTCACTTATTTAAA | 0.121 | 0.154 |  |
| ACAGACGAAGGAGCCGCAAAGAAGTTATTAAGCGATGAATAATCCCACAATATAAATATCTCTCACTTATTTAAA |  | 0.0785 |  |
| ACAGACGAAGGAGCCGCAAAGAAGTTATTAAGCGATGAATAATCCCCCAATATAAATATCTCTCACTTATTTAAA | 0.0922 | 0.13 |  |
| ACAGACGAAGGAGCCGCAAAGAAGTTATTAAGCGATGAATAATCCCGCAATATAAATATCTCTCACTTATTTAAA | 0.0603 | 0.0767 |  |
| ACAGACGAAGGAGCCGCAAAGAAGTTATTAAGCGATGAATAATCCCTAAATATAAATATCTCTCACTTATTTAAA | 0.132 | 0.207 |  |
| ACAGACGAAGGAGCCGCAAAGAAGTTATTAAGCGATGAATAATCCCTCAAAATAAATATCTCTCACTTATTTAAA | 0.0793 | 0.108 |  |
| ACAGACGAAGGAGCCGCAAAGAAGTTATTAAGCGATGAATAATCCCTCAAGATAAATATCTCTCACTTATTTAAA | 0.0861 | 0.0789 |  |
| ACAGACGAAGGAGCCGCAAAGAAGTTATTAAGCGATGAATAATCCCTCAATAAAAATATCTCTCACTTATTTAAA |  | 0.0528 |  |
| ACAGACGAAGGAGCCGCAAAGAAGTTATTAAGCGATGAATAATCCCTCAATAGAAATATCTCTCACTTATTTAAA | 0.0778 | 0.0613 |  |
| ACAGACGAAGGAGCCGCAAAGAAGTTATTAAGCGATGAATAATCCCTCAATATAAAAATCTCTCACTTATTTAAA | 0.111 | 0.111 |  |
| ACAGACGAAGGAGCCGCAAAGAAGTTATTAAGCGATGAATAATCCCTCAATATAAACATCTCTCACTTATTTAAA | 0.0873 | 0.0627 |  |
| ACAGACGAAGGAGCCGCAAAGAAGTTATTAAGCGATGAATAATCCCTCAATATAAATAACTCTCACTTATTTAAA | 0.114 | 0.102 |  |

| Sequence | cleaved RNA product abundance [1] | cleaved RNA product abundance [2] | cleaved RNA product abundance (experiment (reporter, strain, medium): exp 6: tetM reporter, strain 168) |
| --- | --- | --- | --- |
| ACAGACGAAGGAGCCGCAAAGAAGTTATTAAGCGATGAATAATCCCTCAATATAAATACCTCTCACTTATTTAAA |  | 0.118 |  |
| ACAGACGAAGGAGCCGCAAAGAAGTTATTAAGCGATGAATAATCCCTCAATATAAATATCTCTCACTTATTTAAA | 0.0916 | 0.116 | 0.132 |
| ACAGACGAAGGAGCCGCAAAGAAGTTATTAAGCGATGAATAATCCCTCAATATAAATATTTCTCACTTATTTAAA | 0.0865 | 0.171 |  |
| ACAGACGAAGGAGCCGCAAAGAAGTTATTAAGCGATGAATAATCCCTCAATATAGATATCTCTCACTTATTTAAA |  | 0.0736 |  |
| ACAGACGAAGGAGCCGCAAAGAAGTTATTAAGCGATGAATAATCCCTCAATATTAATATCTCTCACTTATTTAAA |  | 0.151 |  |
| ACAGACGAAGGAGCCGCAAAGAAGTTATTAAGCGATGAATAATCCCTCACTATAAATATCTCTCACTTATTTAAA | 0.0669 | 0.0749 |  |
| ACAGACGAAGGAGCCGCAAAGAAGTTATTAAGCGATGAATAATCCCTCATAATAAATATCTCTCACTTATTTAAA | 0.165 |  |  |
| ACAGACGAAGGAGCCGCAAAGAAGTTATTAAGCGATGAATAATCCCTCCATATAAATATCTCTCACTTATTTAAA |  | 0.0952 |  |
| ACAGACGAAGGAGCCGCAAAGAAGTTATTAAGCGATGAATAATCCCTCTATATAAATATCTCTCACTTATTTAAA |  | 0.0811 |  |
| ACAGACGAAGGAGCCGCAAAGAAGTTATTAAGCGATGAATAATCCCTGAATATAAATATCTCTCACTTATTTAAA |  | 0.072 |  |
| ACAGACGAAGGAGCCGCAAAGAAGTTATTAAGCGATGAATAATCCCTTAATATAAATATCTCTCACTTATTTAAA |  | 0.301 |  |
| ACAGACGAAGGAGCCGCAAAGAAGTTATTAAGCGATGAATAATCCGTCAATATAAATATCTCTCACTTATTTAAA |  | 0.139 |  |
| ACAGACGAAGGAGCCGCAAAGAAGTTATTAAGCGATGAATAATCCTTCAATATAAATATCTCTCACTTATTTAAA | 0.0918 | 0.119 |  |
| ACAGACGAAGGAGCCGCAAAGAAGTTATTAAGCGATGAATAATCGCTCAATATAAATATCTCTCACTTATTTAAA | 0.561 | 0.726 |  |
| ACAGACGAAGGAGCCGCAAAGAAGTTATTAAGCGATGAATAATCTCTCAATATAAATATCTCTCACTTATTTAAA |  | 0.0997 |  |
| ACAGACGAAGGAGCCGCAAAGAAGTTATTAAGCGATGAATAATGCCTCAATATAAATATCTCTCACTTATTTAAA |  | 0.112 |  |
| ACAGACGAAGGAGCCGCAAAGAAGTTATTAAGCGATGAATAATTCCTCAATATAAATATCTCTCACTTATTTAAA | 0.0741 | 0.096 |  |
| ACAGACGAAGGAGCCGCAAAGAAGTTATTAAGCGATGAATACTCCCTCAATATAAATATCTCTCACTTATTTAAA |  | 0.102 |  |
| ACAGACGAAGGAGCCGCAAAGAAGTTATTAAGCGATGAATTATCCCTCAATATAAATATCTCTCACTTATTTAAA | 0.101 | 0.101 |  |
| ACAGACGAAGGAGCCGCAAAGAAGTTATTAAGCGATGACTAATCCCTCAATATAAATATCTCTCACTTATTTAAA |  | 0.0948 |  |

| Sequence | cleaved RNA product abundance [1] | cleaved RNA product abundance [2] | cleaved RNA product abundance (experiment (reporter, strain, medium): exp 6: tetM reporter, strain 168) |
| --- | --- | --- | --- |
| ACAGACGAAGGAGCCGCAAAGAAGTTATTAAGCGATGCATAATCCCTCAATATAAATATCTCTCACTTATTTAAA |  | 0.125 |  |
| ACAGACGAAGGAGCCGCAAAGAAGTTATTAAGCGATGTATAATCCCTCAATATAAATATCTCTCACTTATTTAAA |  | 0.08 |  |
| ACAGACGAAGGAGCCGCAAAGAAGTTATTAAGCGATTAATAATCCCTCAACATAAATATCTCTCACTTATTTAAA |  | 0.0653 |  |
| ACAGACGAAGGAGCCGCAAAGAAGTTATTAAGCGATTAATAATCCCTCAATATAAATATCTCTCACTTATTTAAA | 0.0842 | 0.0983 |  |
| ACAGACGAAGGAGCCGCAAAGAAGTTATTAAGCGATTAATAATTCCTCAATATAAATATCTCTCACTTATTTAAA |  | 0.0664 |  |
| ACAGACGAAGGAGCCGCAAAGAAGTTATTAAGCGCTGAATAATCCCTCAATATAAATATCTCTCACTTATTTAAA | 0.0756 | 0.0581 |  |
| ACAGACGAAGGAGCCGCAAAGAAGTTATTAAGCTATGAATAATCCCTCAATATAAATATCTCTCACTTATTTAAA | 0.0874 | 0.104 |  |
| ACAGACGAAGGAGCCGCAAAGAAGTTATTAAGGAAAGAATAATCCCTCAATATAAATATCTCTCACTTATTTAAA |  | 0.0978 |  |
| ACAGACGAAGGAGCCGCAAAGAAGTTATTAAGGAACGAATAATCCCTCAATATAAATATCTCTCACTTATTTAAA | 0.0842 | 0.073 |  |
| ACAGACGAAGGAGCCGCAAAGAAGTTATTAAGGAAGGAATAATCCCTCAATATAAATATCTCTCACTTATTTAAA |  | 0.233 |  |
| ACAGACGAAGGAGCCGCAAAGAAGTTATTAAGGAATAAATAATCCCTCAATACAAATATCTCTCACTTATTTAAA |  | 0.0573 |  |
| ACAGACGAAGGAGCCGCAAAGAAGTTATTAAGGAATAAATAATCCCTCAATATAAATATCTCTCACTTATTTAAA | 0.0901 | 0.0868 |  |
| ACAGACGAAGGAGCCGCAAAGAAGTTATTAAGGAATCAATAATCCCTCAATATAAATATCTCTCACTTATTTAAA | 0.0834 | 0.109 |  |
| ACAGACGAAGGAGCCGCAAAGAAGTTATTAAGGAATGAAAAATCCCTCAATATAAATATCTCTCACTTATTTAAA | 0.0892 | 0.137 |  |
| ACAGACGAAGGAGCCGCAAAGAAGTTATTAAGGAATGAACAATCCCTCAATATAAATATCTCTCACTTATTTAAA | 0.0794 | 0.124 |  |
| ACAGACGAAGGAGCCGCAAAGAAGTTATTAAGGAATGAAGAATCCCTCAATATAAATATCTCTCACTTATTTAAA | 0.0952 | 0.17 |  |
| ACAGACGAAGGAGCCGCAAAGAAGTTATTAAGGAATGAATAAACCCTCAATATAAATATCTCTCACTTATTTAAA | 0.0981 | 0.11 |  |
| ACAGACGAAGGAGCCGCAAAGAAGTTATTAAGGAATGAATAACCCCTCAATATAAATATCTCTCACTTATTTAAA |  | 0.101 |  |
